Assay results: paper PMC7396438
“And” between values parts separate entries of the source, which are not always exact repeats. Equal values may be shown once.

Key:
Assay in all cases: cross-linking; in vivo photo-cross-linking in BamA mutant strains (chromosomal bamA replaced; pBpa at 64, at 132, or at both); blot with antibodies against SurA, bands quantified with ImageJ against nonspecific bands as internal control; repeated twice
[1] = biological target: BamA-R64&D132pBpa (E. coli) (UniProt P0A940)
BamA-R64pBpa (E. coli) = BamA-R64pBpa (E. coli) (UniProt P0A940)
BamA-D132pBpa (E. coli) = BamA-D132pBpa (E. coli) (UniProt P0A940)

SurA, sequence (P0ABZ6 21-428): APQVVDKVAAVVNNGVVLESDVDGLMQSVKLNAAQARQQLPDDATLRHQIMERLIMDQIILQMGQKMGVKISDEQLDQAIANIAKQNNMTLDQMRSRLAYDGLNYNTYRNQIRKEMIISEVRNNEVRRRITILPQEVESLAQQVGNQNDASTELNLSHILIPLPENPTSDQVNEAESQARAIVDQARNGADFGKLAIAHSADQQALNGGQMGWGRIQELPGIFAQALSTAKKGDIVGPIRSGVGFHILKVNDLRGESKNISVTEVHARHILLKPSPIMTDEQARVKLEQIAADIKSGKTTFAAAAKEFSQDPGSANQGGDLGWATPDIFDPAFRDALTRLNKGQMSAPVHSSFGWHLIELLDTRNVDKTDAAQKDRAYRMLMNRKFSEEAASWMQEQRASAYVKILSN

In the case of “SurA (from UniProt P0ABZ6 21-428) (natural protein)”, the amount of cross-linked product (ImageJ, against nonspecific bands) [1] is reported as 1 and 1.02, the stoichiometry N [1] is reported as 1 and the sum of the amounts of the two cross-linked products (ImageJ) [1] is reported as 2.02. The amount of cross-linked product (ImageJ, against nonspecific bands) (BamA-R64pBpa (E. coli)) was 1.97 and the amount of cross-linked product (ImageJ, against nonspecific bands) (BamA-D132pBpa (E. coli)) was 2.12.
